Data published in US9096835B2, “DNA polymerase” (Medical Research Council, priority 2003, dated 2015).

B1: 3B5: third round clone, four mismatch extension; SEQ ID NO: 88 (protein)
chain: MAMLPLFEPKGRVLLVDGHHLAYRTSFALKGPTTSRGEPVQVVYGFAKSLLKALKEDGYKAVFVVFDAKAPPFRHKAYEAYRAGRAPTPEDFPRQLALVKELVDLLGFTRLEVPGYEADDVLATLAKKAEKEGYEVRILTADRGLYQLVSDRVAVLHPEGHLITPEWLWEKYGLRPEQWVDFRALVGDPSDNLPGVKGIGEKTALKLLKEWGSLENLLKNLDRVKPENVREKIKAHLEDLRLSLELSRVRTDLPLEVDLAQGREPDRERLRAFLERLEFGSLLHEFGLLESPKALEEAPWPPPEGAFVGFVLSRKAPMWADLLALAAARGGRVYRAPEPYKALRDLKEARGLLAKDLSVLALREGLGLPPGDDPMLLAYLLDPSNTTPEGVARRYGGEWTEEAGERAALSERLFANLWGRLEGEERLLWLYREVDRPLSAVLAHMEATGVRLDVACLQALSLELAEEIRRLEEEVFRLAGHTFNLNSRDQLERVLFDELGLPAIGKTEKTGKRSTSAAILEALREAHPIVEKILQYRELTKLKSTYIDPLPDLIHPRTGRLHTRFNQTATATGRLSSSDPNLQNIPVRTPLGQRIRRAFIAEEGWLLVVLDYSQIELRVLAHLSGDENLIRVFQEGRDIHTETASWMFGVPREAVDPLMRRAAKTINFGVLYGMSAHRLSQELAIPYEEAQAFIERYFQSFPKVRAWIEKALEEGRRRGYVETLFGRRRYVPDLNARVKSVREAAERMAFNMPVQGTAADLMKLAMVKLFPRLREMGARMLLQVHDELLLEAPQARAEEVAALAKEAMEKAYPLAVPLEVKVGIGEDWLSAKE
modifications: Mutant Taq polymerase
B2: 3B6: third round clone, abasic site bypass; SEQ ID NO: 90 (protein)
chain: MAMLPLFEPKGRVLLVDGHHLAYRAFFALKGLTTSRGEPVQAVYGFAKSLLKALKEDGYKAVFVVFDAKAPSFRHEAYEAYKAGRAPTPEDFPRQLALIKELVDLLGFTRLEVQGYEADDVLATLAKKAEKEGYEVRILTADRDLYQLVSDRVAVLHPEGHLITPEWLWEKYGLRPEQWVDFRALVGDPSNNLPGVKGIGEKTALKLLKEWGSLENLLKNLDRVKPENVREKIKAHLEDLRLSLELSRVRTDLPLEVDLAQGRELDRERLRAFLERLEFGGLLHEFGLLESPKALEEAPWPPPEGAFVGFVLSRKEPMWADLLALAAARGGRVHRAPEPYKALRDLKEARGLLAKDLSVLALREGLGLPPGDDPMLLAYLLDPSNTAPEGVARRYGGEWTEEAGERAALSERLFANLWGRLEGEERLLWLYREVDRPLSAVLAHMEATGVRLDVAYLRALSLEVAEEIARLEAEVFRLAGHPFNLNSRDQLERVLFDELGLPAIGKTEKTGKRSTSAAVLEALREAHPIVEKILQYRELTKLKSTYIDPLPNLIHPRTGRLHTRFNQTATATGRLSSSDPNLQNIPVRTPLGQRIRRAFIAEEGWLLVVLDYSQIELRVLAHLSGDENLIRVFQEGRDIHTETASWMFGVPREAVDPLMRRAAKTINFGVLYGMSAHRLSQELAIPYEEAQAFIERYFQSFPKVRAWIEKTLEEGRKRGYVETLFGRRRYVPDLNARVKGVREAAERMAFNMPVQGTAADLMKLAMVKLFPRLREMGARMLLQVHDELLLEAPQARAGEVAALAKEAMEKAYPLAVPLEVKVGIGEDWLSAKE
modifications: Mutant Taq polymerase
B3: 3B8: third round clone; SEQ ID NO: 92 (protein)
chain: MAMLPLFEPKGRVLLVDGHHLAYRTFFALKGLTTSRGEPVQVVYGFAKSLLKALKEDGYKAVFVVFDAKAPSLRHEAYEAYKAGRAPTPEDFLRQLALIKELVDLLGFTRLEVQGYEADDVLATLAKKAEKEGYEVRILTADRDLYQLVSDRVAVLHPEGHLITPEWLWEKYGLRPEQWVDFRALVGDPSDNLPGVKGIGEKTALKLLKEWGSLENLLKNLDRLKPAIREKILAHMDDLKLSWDLAKVRTDLPLEVDFAKRREPDRERLRAFLERLELGSLLHEFGLLESPKTLEEASWPPPEGAFVGFVLSRKEPMWADLLALAAARGGRVHRAPEPYKALRDLKEARGLLAKDLSVLALREGLGLPPGDDPMLLAYLLDPSNTTPEGVARRYGGEWTKEAGERAALSERLFANLWGRLEGEERLLWLYREVDRPLSAVLAHMEATGVRLDVAYLRALSLEVAEEIARLEAEVFRLAGHPFNLNSRDQLERVLFDELGLPAIGKTEKTGKRSTSAAVLEALREAHPIVEKILQYRELTKLKSTYIDPLPDLIHPRTGRLHTRFNQTATATGRLSSSDPNLQNIPVRTPLGQRIRRAFVAEEGWLLVVLDYSQIELRVLAHLSGDENLTRVFLEGRDIHTETASWMFGVPREAVDPLMRRAAKTINFGVLYGMSAHRLSQELAIPYEEAQAFIERYFQSFPKVRAWIEKTLEEGRKRGYVETLFGRRRYVPDLNARVKSVREAAERMAFNMPVQGTAADLMKLAMVKLFPRLREMGARMLLQVHDELLLEAPQARAEEVAALAKEAMEKAYPLAVPLEVKEGIGEDWLSAKE
modifications: Mutant Taq polymerase
B4: 3C12: third round clone, four mismatch extension; SEQ ID NO: 96 (protein)
chain: MAMLPLFEPKGRVLLVDGHHLAYRTFFALKGPTTSRGEPVQVVYGFAKSLLKALKEDGYKAVFVVFDAKAPSFRHKAYEAYRAGRAPTPEDFPRQLALIKELVDLLGFTRLEVPGYEADDVLATLAKKAEKEGYEVRILTADRGLYQLVSDRVAVLHPEGHLITPEWLWEKYGLRPEQWVDFRALVGDPSDNLPGVKGIGEKTALKLLKEWGSLENLLKNLDRVKPENVREKIKAHLEDLRLSLELSRVRTDLPLEVDLAQGREPDREGLRAFLERLEFGSLLHEFGLLESPKALEEAPWPPPEGAFVGFVLSRKEPMWADLLALAAARGGRVHRAPEPYKALRDLKEARGLLAKDLSVLALREGLGLPPGDDPMLLAYLLDPSNTAPEGVARRYGGEWTEEAGERAALSERLFANLWGRLEGEERLLWLYREVDRPLSAVLAHMEATGVRLDVACLQALSLELAEEIRRLEEEVFRLAGHPFNLNSRDQLERVLFDELGLPAIGKTEKTGKRSTSAAILEALREAHPIVEKILQYRELTKLKSTYIDPLPDLIHPRTGRLHTRFNQTATATGRLSSSGPNLQNIPVRTPLGQRIRRAFVAEEGWLLVVLDYSQIELRVLAHLSGDENLTRVFLEGRDIHTETASWMFGVPREAVDPLMRRAAKTINFGVLYGMSAHRLSQELAIPYEEAQAFIERYFQSFPKVRAWIEKTLEEGRKRGYVETLFGRRRYVPDLNARVKSVREAAERMAFNMPVQGTAADLMKLAMVKLFPRLREMGARMLLQVHDELLLEAPQARAEEVAALAKEAMEKAYPLAVPLEVKVGIGEDWLSAKE
modifications: Mutant Taq polymerase

What was measured:
Assay type in all cases: biochemical
four mismatch primers = test: PCR screen of clones with four mismatch primers; conditions: 292 base pair product, 50 cycles of PCR
Experimental: The resultant clones from both CSR and CST were screened and ranked by PCR assay. Briefly, 2 μl of induced cells were added to 20 μl of PCR mix with the relevant 4 mismatch primers. Clones that produced a band were then subjected to further analysis and their activity on single, double and quadruple mismatch primers (single mismatch primers: 5′-CAGGAAACAGCTATGACAAAAATCTAGATAACGAGGGA-3′ (SEQ ID NO: 48) and 5′-GTAAAACGACGGCCAGTACCACCGAACTGCGGGTGACGCCAAGCC 3′ (SEQ ID NO: 49); double mismatch primers: CAGGAAACAGCTATGACTCGACAAAAATCTAGATAACGACC (SEQ ID NO: 50) and GTAAAACGACGGCCAGTTTATTAACCACCGAACTGC (SEQ ID NO: 51); four mismatch primers above.) was investigated. Polymerases that could extend all of these mismatches were found, though many polymerases could do only one of the mismatches and […].
The best first and second round clones were shuffled as described above and subjected to another round of CSR. The same two sets of mismatch primers with four mismatches at their 3′ end were used in the emulsion as two separate sources of selective pressure. This was then dealt with as above and the resultant clones were screened and ranked by PCR assay (as above). Once again, polymerases that could extend all of these mismatches were found. In particular, clones 3B5.

[1] = test system: primers with an abasic site seven bases from their 3′ end; test: Abasic site bypass in PCR; conditions: 176 bp product, 20 cycles of PCR
Experimental: FIG. 10. A list of polymerases selected to extend four mismatches were assayed for their ability to extend abasic sites in PCR. Primers with an abasic site seven bases from their 3′ end were designed. Such primers will prevent exponential amplification of the target sequence, restricting it to […] amplification, unless the abasic site is bypassed. […] (A) Screen which identified clone A10. (B) A further 4 polymerases that display good abasic site bypass. Lane M: markers, Hae III digest of Φ X174.
A list of polymerases selected to extend four mismatches were assayed for their ability to extend abasic sites in PCR (FIG. 10).

[2] = test system: template containing an abasic site; test: Translesion replication assay (primer extension), abasic site; conditions: gel-extension assay, 60° C.
Experimental: Template primers 22 (undamaged) or 23 (containing a synthetic abasic site) were synthesized by Lofstrand Laboratories (Gaithersburg, Md.). Template primer 24 (containing a single cis-syn thymine dimer), was synthesized as described (34). Primer 25 was ^32P-labeled and annealed to one of the three templates 22, 23, 24 (at a primer template ratio of molar 1:1.5) and extended in 40 mM Tris.HCl at pH 8.0, 5 mM MgCl2, 100 μM of each dNTP, 10 mM DTT, 250 μg/ml BSA, 2.5% glycerol, 10 nM primer-template DNA and 0.1 Unit of polymerase at 60° C. for various times.
Primer extension assays were essentially as described in (Ghadessy et al., 2004). Briefly, undamaged oligonucleotides and a 51mer containing a synthetic abasic site were synthesized by Lofstrand Laboratories (Gaithersburg, Md.) using standard techniques and were gel purified prior to use. A 20mer primer (LES—20 P) with the sequence 5′-[…]-3′ (SEQ ID NO: 99) was 5′-labeled with [^32P]ATP (5000 Ci/mmole; 1 Ci=37 GBq) (Pharmacia) using T4 polynucleotide kinase (Invitrogen, Carlsbad Calif.). Radiolabeled primer-template DNAs were prepared by annealing the 5′[^32P] labeled 20mer primer to one of the two following 51mer templates (at a primer template ratio of molar 1:1.5). 1) undamaged DNA (UNDT51T); 5′-AGCTACCATGCCTGCACGAATTCGGCATCCGTCGCGACCACGGTCGCAGCG-3′ (SEQ ID NO: 100); 2) an oligo (LABA51T) containing a synthetic abasic site (indicated as an X in bold font); 5′-AGCTACCATGCCTGCACGACA XCG GCATCCGTCGCGACCACGGTCGCAGCG-3′ (SEQ ID NO: 101). Standard replication reactions of 10 contained 40 mM Tris.HCl at pH 8.0, 5 mM MgCl2, 100 μM of each ultrapure dNTP (Amersham Pharmacia Biotech, NJ), 10 mM DTT, 250 μg/ml BSA, 2.5% glycerol, 10 nM 5′[32P] primer-template DNA and 0.1 Unit of polymerase. After incubation at 60° C. for various times reactions were terminated by the addition of 10 μl of 95% formamide/10 mM EDTA and the samples heated to 100° C. for 5 min. Reaction mixtures (5 μl) were subjected to 20% polyacrylamide/7 M Urea gel electrophoresis and replication products visualized by PhosphorImager analysis.

Molecule	extension of primers containing four mismatches in PCR (four mismatch primers)	amplification product in PCR with abasic site primers [1]	extension of primers containing four mismatches in PCR (four mismatch primers; listed as B8)	abasic site bypass in primer extension [2]	extension of primers containing four mismatches in PCR (four mismatch primers; listed as C12)
B1	able to extend primers containing four mismatches	–	–	–	–
B2	cannot	produced an amplification product	–	–	–
B3	able to extend primers containing four mismatches	produced an amplification product	cannot	–	–
B4	able to extend primers containing four mismatches	produced an amplification product	–	improved abasic site activity	can also extend four mismatched primers in PCR
